{"source": "paper PMC1405823", "system": "BsSSB (6xHis-tagged, as purified) (Bacillus subtilis)", "experiment": "EMSA", "details": "100 mM Tris-HCl pH 7.5, 10 min at 37 °C, 12.5% native PAGE", "data": [{"substance": "50-base random sequence ssDNA", "values": [{"measurement": "binding signal (% probe shifted)", "result": 50}]}]}
